Results from patent publication US20060193771A1 (US Dept. of Health and Human Services, published 2006).

What was measured:
[1] = biological target: T1, recombinant soluble CD30 (sCD30) produced in E. coli (human); test: indirect ELISA, sCD30 coated
T1 construct: also called soluble CD30 made in E. coli; extracellular domain of CD30 with His-tag
T1 chain: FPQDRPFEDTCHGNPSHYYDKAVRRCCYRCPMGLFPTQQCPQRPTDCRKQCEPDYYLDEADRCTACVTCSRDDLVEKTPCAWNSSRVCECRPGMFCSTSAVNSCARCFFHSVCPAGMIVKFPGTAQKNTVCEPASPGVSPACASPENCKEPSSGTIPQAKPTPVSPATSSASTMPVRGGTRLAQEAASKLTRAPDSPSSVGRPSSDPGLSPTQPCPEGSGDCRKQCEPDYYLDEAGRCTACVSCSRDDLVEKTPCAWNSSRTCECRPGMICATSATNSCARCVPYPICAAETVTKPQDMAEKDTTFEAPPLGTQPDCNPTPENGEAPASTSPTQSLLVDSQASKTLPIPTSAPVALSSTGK

CD30-Fc [2] = biological target: T2, CD30-Fc (human); test: indirect ELISA, CD30-Fc coated
T2 construct: also called extracellular domain of CD30 fused with human IgG Fc
T2 chain: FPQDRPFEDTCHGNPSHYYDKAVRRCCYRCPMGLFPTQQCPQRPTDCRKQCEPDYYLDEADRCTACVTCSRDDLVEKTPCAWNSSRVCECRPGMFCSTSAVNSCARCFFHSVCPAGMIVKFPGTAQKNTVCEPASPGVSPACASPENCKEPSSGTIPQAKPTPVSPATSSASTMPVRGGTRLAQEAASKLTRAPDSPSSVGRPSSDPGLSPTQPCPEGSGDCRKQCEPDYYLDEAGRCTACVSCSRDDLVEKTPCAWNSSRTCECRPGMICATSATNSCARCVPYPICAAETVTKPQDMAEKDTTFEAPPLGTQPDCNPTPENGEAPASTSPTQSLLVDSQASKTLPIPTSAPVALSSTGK

CD30-Fc [3] = biological target: T2, CD30-Fc; test: affinity of the MAb; ELISA using CD30-Fc
[4] = biological target: T3, human CD30, native, expressed on cells (human); test: FACS, L428 cells, MAb 5 µg/ml, control HeFi-I
T3 construct: also called native CD30; CD30 on L540, L428, A431/CD30, Karpas299, SUDHL-1 and other CD30-positive cells
T3 chain: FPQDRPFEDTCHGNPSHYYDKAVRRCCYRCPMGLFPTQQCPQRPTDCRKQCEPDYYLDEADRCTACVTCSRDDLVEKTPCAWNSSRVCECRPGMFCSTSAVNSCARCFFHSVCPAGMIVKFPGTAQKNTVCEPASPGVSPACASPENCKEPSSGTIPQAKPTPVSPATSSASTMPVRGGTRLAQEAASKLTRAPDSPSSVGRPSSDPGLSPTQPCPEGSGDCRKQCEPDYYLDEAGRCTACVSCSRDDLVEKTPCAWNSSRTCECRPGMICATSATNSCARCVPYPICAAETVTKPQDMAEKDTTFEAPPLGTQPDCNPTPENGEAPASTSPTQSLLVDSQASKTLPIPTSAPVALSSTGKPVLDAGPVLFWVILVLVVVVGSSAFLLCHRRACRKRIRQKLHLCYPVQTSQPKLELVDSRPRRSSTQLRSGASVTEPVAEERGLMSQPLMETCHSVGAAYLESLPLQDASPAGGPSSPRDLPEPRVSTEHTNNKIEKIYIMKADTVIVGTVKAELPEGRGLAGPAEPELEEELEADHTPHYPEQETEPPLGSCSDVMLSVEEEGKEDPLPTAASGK

[5] = biological target: T3, human CD30, native, expressed on cells; test: FACS, L540 cells, MAb 5 µg/ml, control HeFi-I
CD30-Fc [6] = biological target: T2, CD30-Fc; test: ELISA using CD30-Fc (equilibrium in solution)
[7] = biological target: T3, human CD30, native, expressed on cells; test: competitive FACS on L540 cells, unlabeled MAb 2.5 µg/ml; competitor: biotin-T6
[8] = biological target: T3, human CD30, native, expressed on cells; test: competitive FACS on L540 cells, unlabeled MAb 2.5 µg/ml; competitor: biotin-T14
[9] = biological target: T3, human CD30, native, expressed on cells; test: competitive FACS on L540 cells, unlabeled MAb 2.5 µg/ml; competitor: biotin-T24
[10] = biological target: T3, human CD30, native, expressed on cells; test: competitive FACS on L540 cells, unlabeled MAb 2.5 µg/ml; competitor: biotin-T25
[11] = biological target: T3, human CD30, native, expressed on cells; test: competitive FACS on L540 cells, unlabeled MAb 2.5 µg/ml; competitor: biotin-HRS-4
[12] = biological target: T3, human CD30, native, expressed on cells; test: competitive FACS on L540 cells, unlabeled MAb 2.5 µg/ml; competitor: biotin-HeFi-I

B1: T25 MAb (antibody, V domains shown)
VH: QVTLKESGPGILQPSQTLSLTCSFSGFSLNTSGVGVGWIRQPSGKGLEWLAHIWWDDDERYNPVLKSRLTISKDTSSNQVFLKIANVDTADSATYYCVRSMVAWFPYWGRGTLVTVSA
VL: DIVMSQSPSSLAVSVGEKFTVNCKSSQSLLYSSNQKNFLAWYQQKPGQSPKLLIYWASTRESGVPDRFIGSGSGTDFTLTISSVKAEDLAVYYCQQHYRYPWTFGGGTKLEIKR
B1 was tested. Which “titer in ELISA” value [1] did it give?
Its value is 135 mL/µg.

What about the “titer in ELISA” value (CD30-Fc [2]) of the same binder?
The value was 50 mL/µg.

And the Kd (CD30-Fc [3])?
The Kd was 6.4 nM.

What about the “relative reactivity in FACS (% of control)” value [4] of the same binder?
The value was 80 % of control.

And the “relative reactivity in FACS (% of control)” value [5]?
Its value is 27.8 % of control.

What about the Kd (CD30-Fc [6]) of the same binder?
Its Kd is 6.4 nM.

What about the “inhibition of the binding of biotin-MAb (%)” value (from here on “inhibition … (%)”) [7] of the same binder?
The value was 1.5%.

What about the “inhibition … (%)” value [8] of the same binder?
Its value is -1.3%.

And the “inhibition … (%)” value [9]?
The value was 0%.

What about the “inhibition … (%)” value [10] of the same binder?
The value was 79.8%.

And the “inhibition … (%)” value [11]?
The value was 0%.

And the “inhibition … (%)” value [12]?
Its value is 0%.

B2: T405 MAb (antibody, V domains shown)
VH: QVQLQQIGAELVRPGASVKLSCKASGYTFNNYWINWVKQRPGQGLEWIGNIYPSDSRSNYNQKFKDKATLTVDKPSSTAYMQLSSPTSEDSAVYYCTLGSYWGQGTLVTVSA
VL: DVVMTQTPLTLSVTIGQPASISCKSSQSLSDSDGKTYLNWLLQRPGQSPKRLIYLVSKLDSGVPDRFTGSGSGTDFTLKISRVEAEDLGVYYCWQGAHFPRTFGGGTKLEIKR
For B2, which Kd (CD30-Fc [3]) is on record?
Its Kd is 5.7 nM.

B3: T408 MAb (antibody, V domains shown)
VH: QVQLQQPGAELVRPGASVKLSCKASGYTFTSYWINWVKQRPGQGLEWIGNIYPSDSYSNYNQKFKDKATLTVDKSSSTAYMQLSSPTSEDSAVYYCTLGSYWGQGTLVTVSA
VL: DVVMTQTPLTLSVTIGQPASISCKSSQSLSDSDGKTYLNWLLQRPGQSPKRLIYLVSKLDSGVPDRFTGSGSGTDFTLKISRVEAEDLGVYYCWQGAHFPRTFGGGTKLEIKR
B3 was tested. Which Kd (CD30-Fc [3]) did it give?
Its Kd is 6.4 nM.

B4: T6 MAb (antibody, V domains shown)
VH: QVQLKESGPGLVTPSQSLSITCTVSGFSLSKYSIHWVRQPPGRGLEWLGMIWGVENTDYNSALKSRLSISKDNSKSQVFLKMNSLQSDDTAMYYCARKDLGLYGMNYWGQGISVTVSA
VL: DIVMTQSQKFMSTSVGDRVSVTCKASQNVGTNVAWYQQKPGQSPKALFYSASYRYSGVPDRFIGSGSGTVFTLTISNVQSEDLAEYFCQQYNTYPLTFGSGTKLEIER
For B4, which “titer in ELISA” value [1] is on record?
Its value is 74.1 mL/µg.

What about the “titer in ELISA” value (CD30-Fc [2]) of the same binder?
The value was 40 mL/µg.

And the Kd (CD30-Fc [3])?
Its Kd is 13 nM.

And the “relative reactivity in FACS (% of control)” value [4]?
Its value is 140 % of control.

What about the “relative reactivity in FACS (% of control)” value [5] of the same binder?
The value was 111 % of control.

What about the Kd (CD30-Fc [6]) of the same binder?
The Kd was 13 nM.

What about the “inhibition … (%)” value [7] of the same binder?
Its value is 100%.

What about the “inhibition … (%)” value [8] of the same binder?
The value was 108%.

What about the “inhibition … (%)” value [9] of the same binder?
Its value is 3.9%.

And the “inhibition … (%)” value [10]?
The value was 25%.

What about the “inhibition … (%)” value [11] of the same binder?
The value was 97.9%.

And the “inhibition … (%)” value [12]?
Its value is 0%.

B5: T105 MAb (antibody, V domains shown)
VH: QVTLKESGPGILQPSQTLSLTCSFSGFSLSTSGMGVSWIRQPSGKDLEWLAHIYWDDDKRYNPSLKSRLTISKDTSSNQVFLKITSVDTADTATYYCARRADGLYFYLDVWGAGTTVTVSS
VL: DIVMTQSQKFMSTSVGDRVSVTCKASQNVNTNVAWYQQKPGQSPEALIYSASYRYSGVPDRFTGSGSGTDFTLTISNVQSEDLAEYFCQQYNSYPLTFGSGTKLEIKR
What does the source list for B5?
Kd (CD30-Fc [3]): 4.2 nM; Kd (CD30-Fc [6]): 4.2 nM

B6: T24 MAb (antibody, V domains shown)
VH: QVQLQQPGAELVRPGASVKLSCKASGYSFTSYWIDWVKQRPGQGLEWIGNIYPSNAYTNYNQKFKDKATLTVDKSSSTAYMQLSSPTSEDSAVYYCTSVLDYFYAMDYWGQGTSVTVSS
VL: DIQMTQTTSSLSASLGDRVTISCRASQDISNYLNWYQQKPDGTVKLLIYYTSRLHSGVPSRFSGSGSGTDYSLTISNLEQEDIATYFCQQVNTLPRTFGGGTKLEIKR
B6 was tested. Which “titer in ELISA” value [1] did it give?
The value was 102 mL/µg.

What about the “titer in ELISA” value (CD30-Fc [2]) of the same binder?
Its value is 179 mL/µg.

What about the Kd (CD30-Fc [3]) of the same binder?
The Kd was 2.2 nM.

And the “relative reactivity in FACS (% of control)” value [4]?
The value was 160 % of control.

And the “relative reactivity in FACS (% of control)” value [5]?
The value was 117 % of control.

What about the Kd (CD30-Fc [6]) of the same binder?
The Kd was 2.2 nM.

And the “inhibition … (%)” value [7]?
The value was 1.5%.

And the “inhibition … (%)” value [8]?
The value was 16.1%.

And the “inhibition … (%)” value [9]?
Its value is 82.8%.

And the “inhibition … (%)” value [10]?
Its value is 97.8%.

And the “inhibition … (%)” value [11]?
The value was 52.2%.

What about the “inhibition … (%)” value [12] of the same binder?
The value was 79.8%.

B7: T427 MAb (antibody, V domains shown)
VH: QVQLQQPGTELVRPGASVKLSCKASGFSFTSYWMNWVKQRPGQGLEWIGMIHPSDSETRLNQKFKDRATLTVDKSSSTAYMQLSSPTSEDSAVYYCASEMDYYFAMDYWGQGTSVTVSS
VL: DIVLTQSPTSLAVSLGQRATISCRASESVDSYGNSFMHWFQQKPGQPPKLLIYRASNLESGIPARFSGSGSWTDFTLTINPVEADDVATYYCQQSNEDPRTFGGGTKLEIKR
For B7, which Kd (CD30-Fc [3]) is on record?
Its Kd is 0.9 nM.

B8: T201 MAb (antibody, V domains shown)
VH: QVQLKESGPGLVAPSQSLSITCTVSGFSLIDYGVSWVRQPPGKGLEWLGMIWGDGNTDYNSGLKSRLSISKDNSKSQVFLKVNSLQTDDTARYYCARPSTGTLFAYWGQGTLVTVSA
VL: EIVLTQSPTTMAASPGERITFTCSASSGISSIYLHWYQQKPGFSPKLLIYRTSNLASGVPPRFSGSGSGTSYSLTIGTMEAEDVATYYCQQGSSIPLTFGAGTKLELKR
For B8, which Kd (CD30-Fc [3]) is on record?
Its Kd is 8.3 nM.

B9: T13 MAb (antibody, V domains shown)
VH: QVQLQQSGAELAKPGASVKMSCKASGYTFTTYWMHWVKQRPGQGLEWIGYINPSTGYTDYNEKFKDKATLTADKSSSTAYMQLSSLTSEDSAVYYCVRRGSYDGNPFAYWGQGTLVSVSA
VL: DIVMTQSHKFMSTSVGDRVTITCKASQDVSTAVAWYQQKPGHSPKLLIYWASTRHTGVPDRFTGSGSGTDYTLTISSVQVEDLALYYCQQHYSTPFTFGSGTKLEIKR
For B9, which “titer in ELISA” value [1] is on record?
Its value is 87.7 mL/µg.

And the “titer in ELISA” value (CD30-Fc [2])?
The value was 91.2 mL/µg.

And the Kd (CD30-Fc [3])?
The Kd was 3.1 nM.

What about the “relative reactivity in FACS (% of control)” value [4] of the same binder?
The value was 180 % of control.

And the “relative reactivity in FACS (% of control)” value [5]?
The value was 111 % of control.

And the Kd (CD30-Fc [6])?
Its Kd is 3.1 nM.

What about the “inhibition … (%)” value [7] of the same binder?
The value was 87.4%.

And the “inhibition … (%)” value [8]?
The value was 108%.

What about the “inhibition … (%)” value [9] of the same binder?
The value was 40.1%.

What about the “inhibition … (%)” value [10] of the same binder?
The value was 26.7%.

What about the “inhibition … (%)” value [11] of the same binder?
The value was 82.6%.

What about the “inhibition … (%)” value [12] of the same binder?
Its value is 0%.

B10: T420 MAb (antibody, V domains shown)
VH: QVQLQQSGAELAKPGASVKMSCKASGYTFTSYWMHWVKQRPGQDLEWIGYINPSTDYTDYNQKFKDKATLTADKSSSTAYMQLSSLTSEDSAVYYCATRHYGSSYGFAYWGQGTLVTVSA
VL: DIVMTQSHKFMSTSVGDRVSITCKASQDVSTAVAWYQQKPGQSPKLLIYWASTRHTGVPDRFTGSGSGTDYSLTISSVQAEDLAVYYCQQHYRTPFTFGSGTKLEIKR
Which results are given for B10?
Kd (CD30-Fc [3]): 1.9 nM; Kd (CD30-Fc [6]): 1.9 nM
